The text below walks through data of paper PMC11645210.

Experiment [1] deals with SARS-CoV-2 BA.2.86 Hexapro S ectodomain (SARS-CoV-2) (UniProt P0DTC2). The experiment is described as follows: cryo-EM structure.
Experiment [2] has as its target SARS-CoV-2 XBB.1.5 + L455S RBD (SARS-CoV-2) (UniProt P0DTC2). The experiment is described as follows: SPR.
The target of experiment [3] is SARS-CoV-2 XBB.1.5 + L455F RBD (SARS-CoV-2) (UniProt P0DTC2). The experiment is described as follows: SPR. A general note: In SPR one partner is held on a chip, and binding of the other changes the refractive index at the surface.

For orientation: stoichiometry N means the number of molecules, sites or subunits per partner or assembly. With “SARS-CoV-2 BA.2.86 Hexapro S ectodomain (from UniProt P0DTC2 14-1204) (domain or fragment)”, the stoichiometry N in experiment [1] worked out at 3.
One may read the Kd as the free concentration of one partner at which half of the binding sites on the other are occupied at equilibrium, for simple one-to-one binding. Broadly, the koff is the rate constant with which the complex falls apart. As usually defined, the kon is the second-order rate constant of association. VIR-7229 Fab fragment: in experiment [2], the Kd came to 0.199 nM, the koff stood at 0.000106 s⁻¹ and the kon amounted to 543000 M⁻¹ s⁻¹. Also, in experiment [3], the Kd turned out to be 0.193 nM, the koff turned out to be 0.000113 s⁻¹ and the kon came to 604000 M⁻¹ s⁻¹.
